Columns and labels:
[1] = target: T1, human TROP-2 (hTROP-2) protein endogenously expressed on the cell surface of human cancer cell lines (human, UniProt P09758 27-323); assay: FACS on PK-59 cells, 0.1 µg antibody
T1 construct: on PK-59, BxPC-3 and other human cancer cell lines, or in human tissue sections; also called TACSTD2; GA733-1
T1 sequence: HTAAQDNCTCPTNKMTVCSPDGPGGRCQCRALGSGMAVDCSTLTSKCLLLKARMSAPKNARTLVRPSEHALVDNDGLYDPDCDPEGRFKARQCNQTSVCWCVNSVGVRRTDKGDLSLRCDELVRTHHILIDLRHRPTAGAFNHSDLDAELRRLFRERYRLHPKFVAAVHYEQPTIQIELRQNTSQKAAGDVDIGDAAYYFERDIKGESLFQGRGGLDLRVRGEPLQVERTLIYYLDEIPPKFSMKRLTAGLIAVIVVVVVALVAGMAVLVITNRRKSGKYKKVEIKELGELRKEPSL
Method: (§1) Cancer cells were removed from a culture dish by a trypsin treatment, and a cell suspension was then prepared (cell density: 2×10⁶ cells/mL). An anti-hTROP-2 monoclonal antibody (0.1 μg) was added to 100 μL of the cell suspension, and they were then reacted at 4° C. for 20 minutes. The reaction solution was washed with PBS, and it was then reacted with PE-labeled anti-mouse IgG (BD Biosciences Pharmingen) (0.1 μg) (at 4° C. for 30 minutes). Thereafter, the resultant was analyzed by FACSCalibur (Becton, Dickinson and Company).
(§2) Subsequently, the reactivity of the generated anti-hTROP-2 monoclonal antibodies with human cancer cell lines (in which an hTROP-2 protein was endogenously expressed on the cell surface) was examined by FACS analysis.

[2] = target: T2, Table 9 peptide No. 26; assay: PEPSCAN/CLIPS peptide ELISA, 1 µg/mL antibody
T2 sequence (peptide): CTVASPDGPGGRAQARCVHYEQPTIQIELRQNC

[3] = target: T1, human TROP-2 (hTROP-2) protein …; assay: FACS on BxPC-3 cells, 0.1 µg antibody
Method: as §1, §2

B1: anti-hTROP-2 monoclonal antibody clone K5-116-2-1 (antibody, V domains shown)
VH: QVQLQQPGAELVRPGASVKLSCKASGYTFTSYWITWVKQRPGQGLEWIGNIYPSDSYTNYNQKFRDKATLTVDKSSSTAYMQLSSPTSEDSAVYYCSALFDYWGQGTTLTVSS
VL: DILLTQSPAILSVSPGERVSFSCRASQSIGTSIHWYQQRTNGSPRLLIKYASESISGIPSRFSGSGSGTDFILSINSVESEDIADYYCQQSNSWPFTFGSGTKLEIK
notes: mouse IgG2a; hybridoma FERM BP-11253
- mean fluorescence intensity relative to PE-labeled anti-mouse IgG alone [1]: 122 times
- binding of K5-116-2-1 [2]: 1220
- mean fluorescence intensity relative to PE-labeled anti-mouse IgG alone [3]: 121 times
